For this test, the target named is denatured collagen type-IV. Nature of the test: cell-based or functional assay.

Where only a bound is given, the exact number is not on record here.

B1: Humanized anti-HU177 antibody (antibody, human IgG1, kappa, V domains shown)
VH: QVTLKESGPALVKPTQTLTLTCTFSGFSLSTPGMGVWWIRQPPGKALEWLADIWWDDNKYTNPSLKSRLTISKDTSKNQVVLTMTNMDPVDTATYYCARRANYGNPYYAQDYWGQGTTVTVSS
VL: DIVMTQTPLSLPVTPGEPASISCRSSQSIVSSWGNTYLEWYLQKPGQSPQLLIYKVSNRFSGVPDRFSGSGSGTDFTLKISRVEAEDVGVYYCFQGSHVPWTFGQGTKVEIKR
The molecule B1 yielded an inhibition of B16F10 melanoma cell adhesion to denatured collagen type-IV coated wells (antibody 100 µg/ml) above 40%.

B2: MMAE-conjugated anti-HU177 antibody (Anti-HU177-MMAE) (antibody, V domains shown)
VH: B1 VH
VL: B1 VL
modifications: MMAE conjugated with the Perkit Antibody MMAE Conjugation Kit; conjugation sites and chain not stated
B2 had an inhibition of B16F10 melanoma cell adhesion to denatured collagen type-IV coated wells (antibody 100 µg/ml) above 40%.
